Assay results: patent US11162087B2, “Beta-glucosidase, enzyme composition including same, and method for manufacturing sugar solution using same” (RIKEN, priority 2017, dated 2021)

B1: partially purified β-glucosidase: His-tag purified elution fraction of SEQ ID NO: 1 β-glucosidase from E. coli cell-free extract, buffer exchanged (Example 7) (protein, listed as Pseudotrichonympha grassii)
chain: QIEGLINVMTLEEKVGQMAQLAIDLFIDVPTDTVIPEAARKGIIDYKIGSILNTYGGVSHSKEVWTYINAEFYKYTEETDLKIPILYGLDSIHGANFVNNFTSFPQQIGMAATFNPSLLKEGSRISAYETRAASVGWVFSPVMDLGLDPRWPRIWEGFGEDPYLSSQFGIASVHGFQGKDPNLIDEFHVAACAKHYLAYSNPFTGKDRTPAILSDIFIREYHLPSFKAAVDAGVASVMVNSGLINGIPTHMNHYLLTTVLKEELGFQGVIVTDWQDIENIHTRDHLAPTQKDAVKLAINAGIDMSMIPYNYDFIDYLIELVHEGEVSIDRINDAVRRILKMKAKMNLWDLPVTKSEDYPEFGSEAHANASYTAASESITLLKNENSTLPLAKNTKVLVVGPNSNSHRSLNGGWSYSWQGNAGVQYAVQYNTIYQAIQKVNGEENTVFSQGVRYIETGNYYEDEEVNISESVALARDVDYIILALGENTYTEKPGDLSDLEISQNQIDLAKALASTGKPIILVLNQGRPRIISRIEQLVSAILWIYWPGNYGGDALADILFGDVNPSGKLPVTYPRYSASLITYWHKYAEEQVGQPGAYDYSSDYNPLWEFGYGLSYTTFNYSNLSVPSTSGMRDVIPVSVLVKNTGEVAGKEVVLLFTSDLYASLAPDVKRLRKFTKILLQPGEEQLVSFNLTSSDLSFIDAQSRRVTETGDFEIKIGGLKGKVTLT
modifications: His-tag
B2: β-glucosidase of the present invention (SEQ ID NO: 1): Polypeptide of SEQ ID NO: 1 from Pseudotrichonympha grassii; in Tables 12/13 measured as the Example 10 composition with Trichoderma cellulase (protein, listed as Pseudotrichonympha grassii)
chain: QIEGLINVMTLEEKVGQMAQLAIDLFIDVPTDTVIPEAARKGIIDYKIGSILNTYGGVSHSKEVWTYINAEFYKYTEETDLKIPILYGLDSIHGANFVNNFTSFPQQIGMAATFNPSLLKEGSRISAYETRAASVGWVFSPVMDLGLDPRWPRIWEGFGEDPYLSSQFGIASVHGFQGKDPNLIDEFHVAACAKHYLAYSNPFTGKDRTPAILSDIFIREYHLPSFKAAVDAGVASVMVNSGLINGIPTHMNHYLLTTVLKEELGFQGVIVTDWQDIENIHTRDHLAPTQKDAVKLAINAGIDMSMIPYNYDFIDYLIELVHEGEVSIDRINDAVRRILKMKAKMNLWDLPVTKSEDYPEFGSEAHANASYTAASESITLLKNENSTLPLAKNTKVLVVGPNSNSHRSLNGGWSYSWQGNAGVQYAVQYNTIYQAIQKVNGEENTVFSQGVRYIETGNYYEDEEVNISESVALARDVDYIILALGENTYTEKPGDLSDLEISQNQIDLAKALASTGKPIILVLNQGRPRIISRIEQLVSAILWIYWPGNYGGDALADILFGDVNPSGKLPVTYPRYSASLITYWHKYAEEQVGQPGAYDYSSDYNPLWEFGYGLSYTTFNYSNLSVPSTSGMRDVIPVSVLVKNTGEVAGKEVVLLFTSDLYASLAPDVKRLRKFTKILLQPGEEQLVSFNLTSSDLSFIDAQSRRVTETGDFEIKIGGLKGKVTLT
B3: Comparative Example 1: β-glucosidase derived from the genus Aspergillus filamentous fungus: Aspergillus β-glucosidase (SEQ ID NO: 10) expressed in Trichoderma reesei; measured as enzyme composition … (protein, listed as Aspergillus aculeatus)
chain: DELAFSPPFYPSPWANGQGEWAEAYQRAVAIVSQMTLDEKVNLTTGTGWELEKCVGQTGGVPRLNIGGMCLQDSPLGIRDSDYNSAFPAGVNVAATWDKNLAYLRGQAMGQEFSDKGIDVQLGPAAGPLGRSPDGGRNWEGFSPDPALTGVLFAETIKGIQDAGVVATAKHYILNEQEHFRQVAEAAGYGFNISDTISSNVDDKTIHEMYLWPFADAVRAGVGAIMCSYNQINNSYGCQNSYTLNKLLKAELGFQGFVMSDWGAHHSGVGSALAGLDMSMPGDITFDSATSFWGTNLTIAVLNGTVPQWRVDDMAVRIMAAYYKVGRDRLYQPPNFSSWTRDEYGFKYFYPQEGPYEKVNHFVNVQRNHSEVIRKLGADSTVLLKNNNALPLTGKERKVAILGEDAGSNSYGANGCSDRGCDNGTLAMAWGSGTAEFPYLVTPEQAIQAEVLKHKGSVYAITDNWALSQVETLAKQASVSLVFVNSDAGEGYISVDGNEGDRNNLTLWKNGDNLIKAAANNCNNTIVVIHSVGPVLVDEWYDHPNVTAILWAGLPGQESGNSLADVLYGRVNPGAKSPFTWGKTREAYGDYLVRELNNGNGAPQDDFSEGVFIDYRGFDKRNETPIYEFGHGLSYTTFNYSGLHIQVLNASSNAQVATETGAAPTFGQVGNASDYVYPEGLTRISKFIYPWLNSTDLKASSGDPYYGVDTAEHVPEGATDGSPQPVLPAGGGSGGNPRLYDELIRVSVTVKNTGRVAGDAVPQLYVSLGGPNEPKVVLRKFDRLTLKPSEETVWTTTLTRRDLSNWDVAAQDWVITSYPKKVHVGSSSRQLPLHAALPKVQ
notes: measured as enzyme composition with Trichoderma cellulase

Assays:
[1] = β-glucosidase activity measurement with pNP-Glc; assay type: biochemical; settings: 1 mM pNP-Glc, 50 mM acetic acid buffer, 30° C., 10 minutes; 1 U = 1 μmol p-nitrophenol per minute
Protocol: In the present invention, “β-glucosidase” means an enzyme that catalyzes a reaction for hydrolysis degradation of a sugar β-glucoside bond. In the present invention, a method for measuring a β-glucosidase activity utilizes a reaction using p-nitrophenyl-β-D-glucopyranoside (pNP-Glc) as a substrate. Specifically, an enzyme liquid is added to a substrate solution prepared by dissolving pNP-Glc in 50 mM acetic acid-sodium acetate buffer solution (pH 5.0) and reacted at 30° C. for 10 minutes; and the reaction is stopped by well mixing with 2M sodium carbonate in an amount equivalent to one-tenth of a reaction system volume to measure an increase of the absorbance at 405 nm. When p-nitrophenol is released and the absorbance at 405 nm is increased after the above reaction, it is determined that the β-glucosidase activity is present.
10 μL of an enzyme diluted solution was added to and reacted with 90 μL of 50 mM acetic acid buffer containing 1 mM p-nitrophenyl-β-glucopyranoside (manufactured by Sigma-Aldrich Japan) at 30° C. for 10 minutes. Thereafter, 10 μL of 2M sodium carbonate was added and well mixed to stop the reaction, and an increase of absorbance at 405 nm was measured. The activity to release 1 μmol of p-nitrophenol per minute was defined as 1 U. For a blank, 10 μL of 2M sodium carbonate was added to and well mixed with 90 μL of 50 mM sodium acetate buffer containing 1 mM p-nitrophenyl-β-glucopyranoside, and thereafter, 10 μL of an enzyme diluted solution was added to cause a reaction at 30° C. for 30 minutes. Thereafter, an increase of absorbance at 405 nm was measured. At this time, the enzyme liquid was diluted so as not to exceed an absorbance at 405 nm of 1. In addition, a calibration curve was created based on absorbances measured by preparing p-nitrophenol solutions at concentrations of 0.1 mM, 0.2 mM, 1 mM and 2 mM; using 10 μL of them instead of an enzyme diluted solution; and adding and well mixing 10 μL of 2M sodium carbonate for color development.

[2] = Inhibitory action of glucose on the β-glucosidase activity; assay type: biochemical; settings: 1 mM pNP-Glc, 30° C., 100 minutes
Excerpt: The β-glucosidase derived from a protist of the genus Pseudotrichonympha of the present invention is preferably less likely to suffer from inhibition by glucose on the 3-glucosidase activity. Specifically, when the β-glucosidase activity in the absence of glucose is taken unity, the β-glucosidase activity under a condition of a glucose concentration of 8 g/L (or in the presence of 8 g/L glucose) is preferably 0.5 or more, more preferably 0.6 or more, more preferably 0.7 or more, more preferably 0.8 or more, more preferably 0.9 or more, more preferably 1.0 or more, more preferably 1.1 or more, more preferably 1.2 or more, more preferably 1.3 or more, and in particular preferably 1.4 or more. Further, in addition to the β-glucosidase activity under the condition of the glucose concentration of 8 g/L, when the β-glucosidase activity in the absence of glucose is taken as unity, the β-glucosidase activity under a condition of a glucose concentration of 20 g/L (or in the presence of 20 g/L glucose) is preferably 0.5 or more, more preferably 0.6 or more, and in particular preferably 0.7 or more. The method used herein for measuring the β-glucosidase activity is the same as the above-described method except that 8 g/L or 20 g/L of glucose is added at the time of measuring; and results obtained thereby are used.
An enzyme solution was added to a mixture solution containing 1 mM p-nitrophenyl-β-glucopyranoside (manufactured by Sigma-Aldrich Japan), 50 mM acetic acid buffer and 0, 4, 8 or 20 g/L glucose such that the total amount of the reaction solution became 100 μL, causing a reaction at 30° C. for 100 minutes. Thereafter, 10 μL of 2M sodium carbonate was added and well mixed to stop the reaction, and an increase of absorbance at 405 nm was measured. The activity to release 1 μmol of p-nitrophenol per minute was defined as 1 U. For a blank, 10 μL of 2M sodium carbonate was added to an amount, equivalent to that of the above mixture solution for the reaction solution before addition of the enzyme solution, of a mixture solution containing 1 mM p-nitrophenyl-β-glucopyranoside, 50 mM sodium acetate buffer and 0, 4, 8 or 20 g/L glucose, and mixed well; and then, the enzyme solution was added such that the total solution amount of the blank became 110 μL, causing a reaction at 30° C. for 30 minutes. Thereafter, an increase of absorbance at 405 nm was measured.
In accordance with Reference Example 8, the inhibitory action of glucose on the β-glucosidase activity was measured in enzyme compositions: containing the β-glucosidase and the genus Trichoderma filamentous fungus-derived cellulase prepared in Example 10; and the cell-free extract of β-glucosidase mutant gene transformed E. coli prepared in Example 5. For a comparative control, only the genus Trichoderma filamentous fungus-derived cellulase was used, and the inhibitory action of glucose on the β-glucosidase activity was measured in the same manner. […] That is, both of the enzyme composition containing the β-glucosidase of the present invention and the genus Trichoderma filamentous fungus-derived cellulase, and the cell-free extract of β-glucosidase mutant gene transformed E. coli were less likely to suffer from inhibition on the β-glucosidase activity by glucose, compared to only the genus Trichoderma filamentous fungus-derived cellulase, and the enzyme composition of Comparative Example 1 containing the genus Aspergillus filamentous fungus-derived β-glucosidase and the genus Trichoderma filamentous fungus-derived cellulase.

Molecule	β-glucosidase activity per 1 mg of protein [1]	BGL activity (relative value) in the presence of 8 g/L glucose when BGL activity in the absence of glucose is taken as unity [2]	BGL activity (relative value) in the presence of 20 g/L glucose when BGL activity in the absence of glucose is taken as unity [2]
B1	3.50 U per 1 mg of protein	–	–
B2	–	1.49	0.94
B3	–	0.46	0.20
